For one molecule, Kd results are on record in publication PMC7673487 (International Journal of Nanomedicine, 2020).

Experiment [1] concerns the target T1, recombinant rat NRP-1 protein (rat, UniProt Q9QWJ9 22-855).
T1 sequence (looked up): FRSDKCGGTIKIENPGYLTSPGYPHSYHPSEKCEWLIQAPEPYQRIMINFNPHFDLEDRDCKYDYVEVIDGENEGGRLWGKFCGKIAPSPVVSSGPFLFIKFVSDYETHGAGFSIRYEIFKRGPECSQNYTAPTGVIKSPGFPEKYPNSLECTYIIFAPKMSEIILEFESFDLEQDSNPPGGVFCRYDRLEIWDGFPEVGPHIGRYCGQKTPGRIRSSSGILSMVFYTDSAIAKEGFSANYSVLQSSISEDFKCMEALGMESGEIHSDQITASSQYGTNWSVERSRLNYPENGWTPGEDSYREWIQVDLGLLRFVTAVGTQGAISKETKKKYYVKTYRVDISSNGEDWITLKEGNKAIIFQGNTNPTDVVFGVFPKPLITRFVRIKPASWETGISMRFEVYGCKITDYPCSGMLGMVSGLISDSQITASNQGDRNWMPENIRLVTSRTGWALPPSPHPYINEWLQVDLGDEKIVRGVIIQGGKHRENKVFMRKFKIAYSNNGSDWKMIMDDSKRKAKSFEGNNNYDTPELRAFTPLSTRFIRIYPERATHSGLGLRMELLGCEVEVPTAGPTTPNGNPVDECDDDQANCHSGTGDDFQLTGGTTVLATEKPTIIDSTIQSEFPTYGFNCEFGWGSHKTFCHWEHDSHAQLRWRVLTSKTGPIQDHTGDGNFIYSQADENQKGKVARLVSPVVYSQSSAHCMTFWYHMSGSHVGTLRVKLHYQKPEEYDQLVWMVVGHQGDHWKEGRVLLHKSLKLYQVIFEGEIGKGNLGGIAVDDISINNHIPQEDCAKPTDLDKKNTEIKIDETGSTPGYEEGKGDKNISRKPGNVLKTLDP
The experiment can be described thus: SPR.

For experiment [2], the target named is T2, recombinant human NRP-1 protein (human, UniProt O14786 22-856).
T2 sequence (looked up): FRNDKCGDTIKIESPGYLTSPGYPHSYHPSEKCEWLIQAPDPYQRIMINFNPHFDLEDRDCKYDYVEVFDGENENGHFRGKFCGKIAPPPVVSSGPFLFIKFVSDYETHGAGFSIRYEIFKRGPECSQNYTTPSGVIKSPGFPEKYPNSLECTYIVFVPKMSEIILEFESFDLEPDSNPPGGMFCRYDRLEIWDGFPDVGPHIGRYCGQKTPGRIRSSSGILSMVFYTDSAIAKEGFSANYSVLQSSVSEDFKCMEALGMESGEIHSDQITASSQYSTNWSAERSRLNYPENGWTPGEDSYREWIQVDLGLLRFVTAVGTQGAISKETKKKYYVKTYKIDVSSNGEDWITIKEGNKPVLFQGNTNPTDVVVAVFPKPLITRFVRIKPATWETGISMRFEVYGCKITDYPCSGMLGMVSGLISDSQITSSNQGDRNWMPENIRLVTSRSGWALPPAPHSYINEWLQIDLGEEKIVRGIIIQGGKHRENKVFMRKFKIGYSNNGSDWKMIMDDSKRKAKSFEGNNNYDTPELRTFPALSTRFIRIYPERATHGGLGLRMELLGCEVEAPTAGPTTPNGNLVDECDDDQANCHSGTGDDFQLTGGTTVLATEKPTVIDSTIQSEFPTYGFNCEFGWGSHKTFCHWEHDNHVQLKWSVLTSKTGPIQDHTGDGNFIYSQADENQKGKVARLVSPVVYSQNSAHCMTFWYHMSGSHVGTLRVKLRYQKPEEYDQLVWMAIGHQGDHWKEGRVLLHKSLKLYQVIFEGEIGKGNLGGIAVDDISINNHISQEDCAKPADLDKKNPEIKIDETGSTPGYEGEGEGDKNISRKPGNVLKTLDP
Put plainly: SPR.

B1: KDKPPR peptide (peptide)
peptide: KDKPPR
Consider B1, for which the Kd in experiment [1] was determined as 8.7 µM; in experiment [2] it was 0.5 µM.
